Reference: PMC11785871, “D-Serine disrupts Cbln1 and GluD1 interaction and affects Cbln1-dependent synaptic effects and nocifensive responses in the central amygdala” (Cellular and Molecular Life Sciences: CMLS, 2025)

How the values were obtained:
[1] = target: T1, GluD1 (glutamate delta-1 receptor) (Rattus norvegicus, UniProt Q62640); assay: cell-binding assay: inhibition of rCbln1 binding to GluD1-expressing COS-7 cells; effect lost in R526K mutant; immunoblot confirmation in HEK293T; type: cell-based
T1 construct: gene Grid1; rat pCAGGS GluD1 plasmid expressed in COS-7 cells; with Cbln1 (recombinant, HA-tagged)

[2] = target: GluD1 (UniProt Q9ULK0); conditions: cited from earlier work
[3] = target: Neurexin (UniProt P58400); conditions: cited from earlier work
Neurexin, sequence (P58400 51-396): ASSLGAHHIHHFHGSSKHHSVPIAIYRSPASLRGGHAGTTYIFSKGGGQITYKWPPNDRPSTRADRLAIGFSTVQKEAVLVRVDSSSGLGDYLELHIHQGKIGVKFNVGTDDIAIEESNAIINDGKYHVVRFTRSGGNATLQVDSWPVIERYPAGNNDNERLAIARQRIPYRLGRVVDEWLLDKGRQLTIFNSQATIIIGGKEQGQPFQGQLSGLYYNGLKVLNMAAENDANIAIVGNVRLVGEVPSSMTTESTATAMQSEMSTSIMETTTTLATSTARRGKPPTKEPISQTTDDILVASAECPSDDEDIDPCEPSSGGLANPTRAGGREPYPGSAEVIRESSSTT

Cbln1, sequence (P23435 22-193): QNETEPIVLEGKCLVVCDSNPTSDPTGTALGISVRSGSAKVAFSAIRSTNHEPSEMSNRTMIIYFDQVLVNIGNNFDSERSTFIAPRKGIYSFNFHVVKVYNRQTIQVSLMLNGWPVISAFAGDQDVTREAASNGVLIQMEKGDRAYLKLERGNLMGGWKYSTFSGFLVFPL
T1 sequence (Q62640 21-1009): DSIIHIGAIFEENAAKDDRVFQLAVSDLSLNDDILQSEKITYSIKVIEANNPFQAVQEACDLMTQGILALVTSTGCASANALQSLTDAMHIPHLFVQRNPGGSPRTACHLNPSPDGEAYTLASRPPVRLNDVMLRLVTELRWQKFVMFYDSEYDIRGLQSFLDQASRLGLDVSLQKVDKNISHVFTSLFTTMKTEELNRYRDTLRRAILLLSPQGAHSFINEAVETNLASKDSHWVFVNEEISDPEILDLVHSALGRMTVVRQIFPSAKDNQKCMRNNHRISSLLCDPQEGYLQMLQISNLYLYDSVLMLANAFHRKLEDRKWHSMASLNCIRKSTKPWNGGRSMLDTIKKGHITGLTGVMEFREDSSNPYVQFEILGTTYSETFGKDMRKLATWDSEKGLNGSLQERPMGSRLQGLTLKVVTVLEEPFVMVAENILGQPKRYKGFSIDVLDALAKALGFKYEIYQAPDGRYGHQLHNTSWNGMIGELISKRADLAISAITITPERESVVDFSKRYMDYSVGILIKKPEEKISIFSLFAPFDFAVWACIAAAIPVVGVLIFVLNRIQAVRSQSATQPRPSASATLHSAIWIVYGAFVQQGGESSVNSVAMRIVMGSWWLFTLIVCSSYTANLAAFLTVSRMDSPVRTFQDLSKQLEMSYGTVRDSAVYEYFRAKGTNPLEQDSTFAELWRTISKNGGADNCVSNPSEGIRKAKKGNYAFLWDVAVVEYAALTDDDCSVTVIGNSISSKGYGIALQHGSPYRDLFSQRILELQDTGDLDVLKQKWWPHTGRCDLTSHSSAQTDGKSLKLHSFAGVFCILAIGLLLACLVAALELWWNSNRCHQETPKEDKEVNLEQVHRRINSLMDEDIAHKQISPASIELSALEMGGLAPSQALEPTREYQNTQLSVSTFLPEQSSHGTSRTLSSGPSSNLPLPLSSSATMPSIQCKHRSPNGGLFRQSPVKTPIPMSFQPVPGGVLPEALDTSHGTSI
T1 sequence (P63182 22-193 partner): as the sequence (P23435 22-193) above
GluD1, sequence (Q9ULK0 21-436): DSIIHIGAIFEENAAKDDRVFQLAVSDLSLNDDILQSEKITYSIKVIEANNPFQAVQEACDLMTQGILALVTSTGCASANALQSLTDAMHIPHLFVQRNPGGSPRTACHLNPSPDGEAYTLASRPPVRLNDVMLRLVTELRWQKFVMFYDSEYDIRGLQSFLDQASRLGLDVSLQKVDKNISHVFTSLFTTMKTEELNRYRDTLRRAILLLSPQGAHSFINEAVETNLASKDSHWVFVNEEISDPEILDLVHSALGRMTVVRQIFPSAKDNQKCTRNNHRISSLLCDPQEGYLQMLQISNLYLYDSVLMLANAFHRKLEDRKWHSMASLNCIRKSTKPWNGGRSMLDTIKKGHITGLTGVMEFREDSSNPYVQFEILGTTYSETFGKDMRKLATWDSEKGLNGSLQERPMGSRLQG

| Molecule | IC50 [1] | Kd [2] | Kd [3] |
| --- | --- | --- | --- |
| N[C@H](CO)C(=O)O [D-serine] | 310 ± 160 µM |  |  |
| Cbln1 (from UniProt P23435) |  | 0.1 µM | 0.047 µM |
